In the supplement of paper PMC12764529:
± gives the half width of the 95% confidence interval.

Key:
[1] = folding stability dG unfold from chymotrypsin proteolysis; higher = more stable
Method in brief: (§1)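 Unfolding free energy was derived, per protease or combined, by relating Bayesian-fitted K50 values from sequencing counts to a sequence-predicted unfolded-state K50 and a shared folded-state K50. The underlying digests exposed cysteine-free mini-proteins under 80 residues, in a PA-tagged cDNA display construct, to trypsin and chymotrypsin at 11 threefold-diluted concentrations and to a no-protease condition. A filter kept only designs with AlphaFold2 dimer inter-PAE above 15.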

[2] = folding stability dG unfold from trypsin proteolysis; higher = more stable
Method in brief: as §1

[3] = folding stability dG unfold (combined trypsin and chymotrypsin); higher = more stable
Method in brief: as §1

Sequence | folding stability dG unfold [1] [kcal/mol] | folding stability dG unfold [2] [kcal/mol] | folding stability dG unfold [3] [kcal/mol]
SAGGSAGGSAGGSSYQLKLEAEFLVGDSSGKLYKVKLTITVNEDGSISIDLEVLSVFDVSAGGSAGGSAGGS [r4_496_TrMRF] | 5.46 ± 0.11 | 4.16 ± 0.2 | 5.41 ± 0.16
SAGGSAGGSAGGSTRDFLVKDPSNGQWYKVTATTDPAGAVTITFPETGEVVPLEGLVVSPSAGGSAGGSAGG [r11_301_JUSTAS] | 1.338 ± 0.012 | 1.47 ± 0.046 | 1.43 ± 0.042
SAGGSAGGSAGGSVAYVAPDGDKLIVRVVRPDGSVEEKEFDSLEDLKTLPDDVPVAFLVSAGGSAGGSAGGS [r4_447_TrMRF] | -0.0498 ± 0.15 | 0.86 ± 0.034 | 0.516 ± 0.11
SAGGSAGGSAGGSVPSVKLPKVGLKTDPVSSVLDFGEEKGDPVSVSIHLTLFLPDGTILLSAGGSAGGSAGG [r11_890_JUSTAS] | 0.881 ± 0.12 | 0.161 ± 0.082 | 0.672 ± 0.17
SAGGSAGGSAGGSVTSTSSVGSSPGSTTTLTYPEKPLYVTVYTELKDDPTVVTTETFPLLSAGGSAGGSAGG [r7_509_JUSTAS] | 1.73 ± 0.066 | 1.22 ± 0.19 | 1.56 ± 0.39
SAGGSAGGSAGGSYEVKEETEPKTGLKITTTTLPDGTIETTTINPATGEVTTTTSSPLESAGGSAGGSAGGS [r10_127_JUSTAS] | 1.89 ± 0.052 | 1.34 ± 0.072 | 1.73 ± 0.15
SAGGSAGGSAGGSYIIVQFPADEIKEALPPGFEIKSIERSPKNGWVMVAIRYPKDGKPISAGGSAGGSAGGS [r4_435_TrROS] | 0.416 ± 0.17 | 1.04 ± 0.038 | 0.818 ± 0.2
SAGGSAGGSAGGTITIPIYLDDKWITITRIELSPPDGKIKIEFTFNNRPREFDIPIPPGASAGGSAGGSAGG [r7_477_TrROS] | 2.71 ± 0.074 | 1.9 ± 0.049 | 2.36 ± 0.11
SAGGSAGGSAGGTITLPNGAKVTRIEFLPDGTLRVEAVVETDGGPVTVEITLPVYPSLATSAGGSAGGSAGG [r7_37_TrMRF] | 2.13 ± 0.036 | 2.19 ± 0.058 | 2.17 ± 0.037
SAGGSAGGSAGGTKTIPFPIEEIEVEHNPDNNYYHVTIRFPDNGKPITFMFPPGDTITISAGGSAGGSAGGS [r10_819_TrROS] | 0.836 ± 0.15 | 0.812 ± 0.025 | 0.868 ± 0.12
SAGGSAGGSAGGTLEAIKELAKDMPPGDKNIPIKIPDGKPYTIDVEMDPDGKMEIDIEPSAGGSAGGSAGGS [r10_1017_TrROS] | -0.634 ± 0.86 | 1.19 ± 0.041 | 0.466 ± 0.2
SAGGSAGGSAGGTLEFTFPGEGNLLAKVRIDLGESGNVRIDVYIYDGDTLLAKATFTLNLSAGGSAGGSAGG [r7_79_TrMRF] | 5.46 ± 0.11 | 4.55 ± 0.12 | 5.48 ± 0.13
SAGGSAGGSAGGVEIPPDKPVAIEVTSPEGPTATLIFDPKDGTVTVIEGGKPVEVPAEDFSAGGSAGGSAGG [r7_937_TrMRF] | -1.06 ± 0.53 | 0.0909 ± 0.059 | -0.377 ± 0.29
SAGGSAGGSAGGVEIVIMFPRGMPPEQFAKMIAKWLRRQGLPPNVKVDIKIIPIDPDDMSAGGSAGGSAGGS [r10_746_TrROS] | 3.35 ± 0.066 | 2.82 ± 0.051 | 3.15 ± 0.18
SAGGSAGGSAGGVGKDKPVIIKIKIKRKVYGLNTPELIAEEEEEIVVVVHPDVNPEKIKPSAGGSAGGSAGG [r7_591_TrMRF] | 2.34 ± 0.056 | 1.06 ± 0.074 | 1.83 ± 0.35
SAGGSAGGSAGGVKPGDFVLIKLTLTEKYYDPETGELIEEKEVELTILIPKGTSLEELKLSAGGSAGGSAGG [r7_591_TrROS_Hall] | 1.96 ± 0.089 | 2.3 ± 0.17 | 2.17 ± 0.25
SAGGSAGGSAGGVVVVEVEIRLSDEEIEALKDLGISAEDLTLRVTVVVELPPPPPAEEESAGGSAGGSAGGS [r10_1149_TrROS_Hall] | 1.04 ± 0.13 | 2.23 ± 0.2 | 1.5 ± 0.21
SAGGSAGGSAGGWDVEIEPFPDGFIFITAEGPNGRKLVIVVMVVPEGKLMYMIVPLDDLSAGGSAGGSAGGS [r10_140_TrROS] | 3.71 ± 0.097 | 2.35 ± 0.095 | 3.34 ± 0.19
